Laboratory results as given in patent US20210277145A1 (INSERM INSTITUT NATIONAL DE LA SANTE ET DE LA RECHERCHE …, published 2021).

Columns and labels:
human antithrombin = target: T1, human antithrombin (human, UniProt P01008 33-464); experiment: biolayer interferometry (Octet-QK), human antithrombin coupled to amine-reactive sensors, sdAb in solution (100 microgram/ml by paragraph 127)
T1 construct: also called AT
Protocol: Example 4: Binding of murine albumin to a complex of antithrombin and KB-AT-002/003_ABP. We tested the binding of albumin to KB-AT-002/003_ABP while the sdAb was bound to antithrombin via biolayer-interferometry analysis using Octet-QK equipment (FIG. 4). To this end, human antithrombin was diluted in 0.1 M Mes (pH 5.0) to a concentration of 50 microgram/ml for coupling to EDC/NHS-activated amine-reactive biosensors (Fortébio, Menlo Park, Calif., USA). Sensors were rehydrated in 0.2 ml 0.1 M MES, pH 5.0 for 300 sec. Sensors were then activated via incubation with 0.1 ml 0.2 M EDC/0.095 M NHS mixture for 300 sec and subsequently incubated with 0.1 ml antithrombin-solution for 600 sec. Unoccupied amine-reactive sites were quenched by incubating with 1M ethanolamine for 180 sec, and sensors were allowed to reach stable baseline levels via incubation with phosphate-buffered saline supplemented with 0.1% Tween-20 (PBS-T) for 300 sec. Antithrombin-coated sensors were then transferred to wells containing KB-AT-002/003_ABP (100 microgram/ml in PBS-T) and incubated for 600 sec in order to visualize association of KB-AT-002/003_ABP to immobilized antithrombin. […] As is showing in the lower panel of FIG. 4, KB-AT-002/003_ABP bound readily to immobilized antithrombin.

[1] = target: T2, biotinylated human albumin (human, UniProt P02768 25-609, biotinylated (sites not given)); experiment: biolayer interferometry (Octet-QK), bt-albumin on streptavidin sensors, sdAb at 125 or 250 microgram/ml
T2 construct: Captured on streptavidin biosensors; also called human bt-albumin; bt-albumin
Protocol: (§1) Example 2: Binding of KB-AT-002/003_ABP to biotinylated human albumin in a biolayer-interferometry analysis assay. We tested the binding of KB-AT-002/003_ABP to biotinylated human albumin using Octet-QK equipment (FIG. 2). To this end, biotinylated albumin (bt-albumin) was diluted in phosphate-buffered saline with 0.1% Tween-20 (PBS-T) to a concentration of 200 microgram/ml for absorption to streptavidin-high binding capacity sensors (Fortébio, Menlo Park, Calif., USA). Sensors were rehydrated in 0.2 ml PBS-T for 15 min. Sensors were then incubated with 0.1 ml bt-albumin solution for 600 sec. Sensors were subsequently allowed to reach stable baseline levels via incubation with PBS-T for 300 sec. bt-Albumin coated sensors were then transferred to wells containing KB-AT-002/003_ABP (125 or 250 microgram/ml in PBS-T) and incubated for 300 sec in order to visualize association of KB-AT-002/003_ABP to immobilized bt-albumin. Following this association phase, sensors were transferred to wells containing PBS-T, and incubated for 900 sec, allowing dissociation of the KB-AT-002/003_ABP/bt-albumin complex.
(§2) Example 3: Binding of KB-VWF-013bv_ABP to biotinylated human or murine albumin in a biolayer-interferometry analysis assay. We tested the binding of KB-VWF-013bv_ABP (SEQ ID NO: 6) to biotinylated human or murine albumin using Octet-QK equipment (FIG. 3). To this end, biotinylated albumin (bt-albumin) was diluted in phosphate-buffered saline with 0.1% Tween-20 (PBS-T) to a concentration of 200 microgram/ml for absorption to streptavidin-high binding capacity sensors (Fortébio, Menlo Park, Calif., USA). Sensors were rehydrated in 0.2 ml PBS-T for 15 min. Sensors were then incubated with 0.1 ml bt-albumin solution for 600 sec. Sensors were subsequently allowed to reach stable baseline levels via incubation with PBS-T for 300 sec. bt-Albumin coated sensors were then transferred to wells containing KB-VWF-013bv_ABP (125 or 250 microgram/ml in PBS-T) and incubated for 900 sec in order to visualize association of KB-VWF-013bv_ABP to immobilized bt-albumin.

murine albumin [2] = target: T3, murine albumin (murine, UniProt P07724 25-608); experiment: immunosorbent assay: murine albumin coated at 10 microgram/ml, bound sdAb probed with peroxidase-labeled anti-His tag antibody, corrected for non-coated wells
Source text: (§3) Example 1: Binding of KB-AT-002/003_ABP to human and murine albumin in an immunosorbent assay. Binding to albumin may be favorable to increase the size of sdAbs, which are smaller sized than conventional immunoglobulins (15 kDa versus 150 kDa, for a monovalent sdAb and IgG, respectively). A construct was established encoding a bi-paratopic sdAb (KB-AT-002/003) fused to an albumin binding peptide (ABP, with the amino acid sequence […]) resulting in the sdAb designated KB-AT-002/003_ABP (SEQ ID NO: 18). Purified KB-AT-002/003_ABP was tested for binding to both human and murine albumin. Human and murine albumin were immobilized (10 microgram/ml) in 10 mM NaHCO₃, 50 mM Na2CO3 (pH 9.5) in a volume of 50 microliter in microtiter plates (Greiner Bio-One, Les Ulis, France) for 16 h at 4° C. As a negative control, no albumin was immobilized. […]
(§4) Wells were then washed three times with 200 microliter/well using TBS-T. Bound of KB-AT-002/003_ABP was probed with peroxidase-labeled monoclonal anti-His tag antibodies (Abcam, diluted 1/10000) for 2 hours at 37° C. with 50 microliter/well. Wells were then washed three times with 100 microliter/well using TBS-T. Residual peroxidase activity was detected by measuring peroxidase-mediated […] of 3,3′,5,5′-tetramethylbenzidine. […]

[3] = target: T4, biotinylated murine albumin (murine, UniProt P07724 25-608, biotinylated (sites not given)); experiment: biolayer interferometry (Octet-QK), bt-albumin on streptavidin sensors, sdAb at 125 or 250 microgram/ml
T4 construct: Captured on streptavidin biosensors; also called murine bt-albumin; bt-albumin
Protocol: as §1, §2

human albumin = target: T5, human albumin (human, UniProt P02768 25-609); experiment: ELISA, albumin coated at 10 microgram/ml, anti-His tag detection
T5 construct: Coated on microtiter wells at 10 microgram/ml
Source text: as §3, §4

murine albumin [4] = target: T3, murine albumin; experiment: as above
Source text: as §3, §4

T1 sequence (P01008 33-464 limits assumed): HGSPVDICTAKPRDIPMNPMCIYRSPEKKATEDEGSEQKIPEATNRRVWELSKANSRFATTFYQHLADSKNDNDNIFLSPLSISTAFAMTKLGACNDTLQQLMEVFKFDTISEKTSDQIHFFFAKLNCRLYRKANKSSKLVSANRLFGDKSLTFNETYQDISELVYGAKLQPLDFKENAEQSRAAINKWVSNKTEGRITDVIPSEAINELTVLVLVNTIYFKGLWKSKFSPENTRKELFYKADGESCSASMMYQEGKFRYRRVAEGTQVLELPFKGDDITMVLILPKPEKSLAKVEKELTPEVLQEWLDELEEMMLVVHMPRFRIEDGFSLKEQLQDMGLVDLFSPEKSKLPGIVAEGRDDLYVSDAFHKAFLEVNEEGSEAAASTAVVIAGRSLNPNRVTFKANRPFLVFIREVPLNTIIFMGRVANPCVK

B1: KB-AT-002/003_ABP (VHH)
chain: QVQLQESGGGLVQAGGSLRLSCAASGRTFNNNGMGWFRQAPGKEREFVAAISWSGGSTYYADSVKGRYIMSRDNAKNTVYLQMNSLKPEDTAVYYCAARTRYNSGLFSRNYDYWGQGTQVTVSSGGGSGGGSGGGSGGGSQVQLQESGGGLVQPGGSLRLSCAASALTFSSRAWAWYRQAPGKQRELVASITGGGTTNYADSVKGRFTISRDNAKNTVYLQMNSLKPEDTAVHYCNGYRYTYAWGQGTQVTVSSGRGGGSGGGSGGGSGGGSQGLIGDIALPRWGALWGDSV
notes: It was detected with anti-His tag antibodies, so the protein tested carried a His tag; also called KB-AT-002/003_AlbBP
binding result (human antithrombin): binds | Kd [1]: 420 nM | binding result (murine albumin [2]): binds

B2: KB-VWF-013bv_ABP (VHH)
chain: QVQLQSGGGLVQAGDSLRLSCAASGRTFIRYAMAWFRQAPGKEREFVAAIPQSGGRSYYADSVKGRFTISRDNAKNTVYLQMNSLKPEDTAVYSCAATSTYYGRSAYSSHSGGYDYWGQGTQVTVSSGGGSGGGSGGGSGGGSQVQLVQSGGGLVQAGDSLRLSCAASGRTFIRYAMAWFRQAPGKEREFVAAIPQSGGRSYYADSVKGRFTISRDNAKNTVYLQMNSLKPEDTAVYSCAATSTYYGRSAYSSHSGGYDYWGQGTQVTVSSGRGGGSLTPRGVRLGGGSQGLIGDIALPRWGALWGDSV
notes: A tag is not described; also called KB-VWF-013_ABP
Kd [1]: 99 nM | Kd [3]: 83 nM

B3: KB-AT-002/003 (VHH)
chain: QVQLQESGGGLVQAGGSLRLSCAASGRTFNNNGMGWFRQAPGKEREFVAAISWSGGSTYYADSVKGRYIMSRDNAKNTVYLQMNSLKPEDTAVYYCAARTRYNSGLFSRNYDYWGQGTQVTVSSGGGSGGGSGGGSGGGSQVQLQESGGGLVQPGGSLRLSCAASALTFSSRAWAWYRQAPGKQRELVASITGGGTTNYADSVKGRFTISRDNAKNTVYLQMNSLKPEDTAVHYCNGYRYTYAWGQGTQVTVSS
notes: A tag is not described, but a His tag is likely, since the ELISA detects with anti-His antibodies
binding result (human albumin): no binding (tested: 0-10 microgram/ml) | binding result (murine albumin [4]): no binding (tested: 0-10 microgram/ml)
